Positions of bridges follow the written chain, without caps; N, C: chain ends. Non-standard residues stand in square brackets, D forms with d. No end group written: not given here. Aib = CC(C)(N)C(=O)O
Molecular target: human glucagon receptor (human, UniProt P47871 26-477)
Test: cell-based or functional assay

human glucagon receptor, sequence (P47871 26-477): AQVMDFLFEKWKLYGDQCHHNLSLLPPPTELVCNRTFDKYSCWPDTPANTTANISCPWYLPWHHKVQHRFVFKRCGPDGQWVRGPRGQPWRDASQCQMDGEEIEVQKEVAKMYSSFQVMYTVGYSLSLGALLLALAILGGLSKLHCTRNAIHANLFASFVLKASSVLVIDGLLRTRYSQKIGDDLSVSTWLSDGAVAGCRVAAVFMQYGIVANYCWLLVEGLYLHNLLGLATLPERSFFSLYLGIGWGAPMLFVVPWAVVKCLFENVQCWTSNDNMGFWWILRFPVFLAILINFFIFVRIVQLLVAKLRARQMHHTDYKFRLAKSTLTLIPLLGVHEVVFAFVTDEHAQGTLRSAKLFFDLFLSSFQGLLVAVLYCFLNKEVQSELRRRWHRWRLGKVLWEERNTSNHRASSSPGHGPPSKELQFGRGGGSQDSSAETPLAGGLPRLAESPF

Binder	In vitro Activity (Relative Activity of SEQ ID NO: 1, %), from cAMP EC50
W[Aib]QGTFTSDYSKCLDERRAKDFVQWLMNT (bridge 16-20; also: ring between positions 16 and 20, kind not given here) [glucagon derivative of SEQ ID NO: 30]	0.3%
Y[Aib]QGTFTSDYSKYLDEKRAKEFVQWLMNTC (bridge 16-20; also: ring between positions 16 and 20, kind not given here) [glucagon derivative of SEQ ID NO: 12]	56.3%
Y[Aib]QGTFTSDYSKYLDCVRAQDFVQWLMRT [glucagon derivative of SEQ ID NO: 17]	23.2%
Y[Aib]QGTFTSDYSKYLDEKCAKEFVQWLMNT (bridge 16-20; also: ring between positions 16 and 20, kind not given here) [glucagon derivative of SEQ ID NO: 21]	57.8%
HSQGTFTSDYSKYLDCDRAQDFVQWLMNT [glucagon derivative of SEQ ID NO: 2]	0.6%
Y[Aib]QGTFTSDYSKYLDSRRACDFRLWLMNT [glucagon derivative of SEQ ID NO: 18]	< 0.1%
W[Aib]QGTFTSDYSKYCDERRAKEFVQWLMNT (bridge 16-20; also: ring between positions 16 and 20, kind not given here) [glucagon derivative of SEQ ID NO: 34]	0.2%
Y[Aib]QGTFTSDYSKYLDCKRAKEFVQWLMNT (bridge 17-21; also: ring between positions 17 and 21, kind not given here) [glucagon derivative of SEQ ID NO: 31]	6.3%
SQGTFTSDYSKYLDECRAKEFVQWLMNT (lactam 15-19) [glucagon derivative of SEQ ID NO: 32]	0.7%
Y[Aib]QGTFTSDYSKYCDEKRAKEFVQWLMNT (bridge 16-20; also: ring between positions 16 and 20, kind not given here) [glucagon derivative of SEQ ID NO: 23]	76.8%
Y[Aib]QGTFTSDYSKYLDSCDAQDFVVWLINT [glucagon derivative of SEQ ID NO: 9]	< 0.1%
Y[Aib]QGTFTSDYSKYCDERRAKEFVQWLMNT (bridge 16-20; also: ring between positions 16 and 20, kind not given here) [glucagon derivative of SEQ ID NO: 35]	17.7%
W[Aib]QGTFVSDYSKYLDECRAKDFVQWLMNT (bridge 16-20; also: ring between positions 16 and 20, kind not given here) [glucagon derivative of SEQ ID NO: 28]	< 0.1%
Y[Aib]QGTFTSDYSKCLDERRAKDFVQWLMNT (bridge 16-20; also: ring between positions 16 and 20, kind not given here) [glucagon derivative of SEQ ID NO: 29]	61.3%
Y[Aib]QGTFTSDYSKYLDCKRAKEFVQWLMNT (not fully specified (bridges)) [glucagon derivative of SEQ ID NO: 14]	18.1%
Y[Aib]QGTFTSDYSKYLDCRRAQVFVQWLMRT [glucagon derivative of SEQ ID NO: 16]	4.2%
Y[Aib]QGTFTSDYSKCLDEKRAKEFVQWLMNT (bridge 16-20; also: ring between positions 16 and 20, kind not given here) [glucagon derivative of SEQ ID NO: 24]	58%
Y[Aib]QGTFTSDYSCYLDSRRAQDFVQWLMNT [glucagon derivative of SEQ ID NO: 13]	5.2%
Y[Aib]QGTFVSDYSKYLDECRAKDFVQWLMNT (bridge 16-20; also: ring between positions 16 and 20, kind not given here) [glucagon derivative of SEQ ID NO: 27]	93.6%
Y[Aib]QGTFTSDYSKYLDEKRCKEFVQWLMNT (bridge 16-20; also: ring between positions 16 and 20, kind not given here) [glucagon derivative of SEQ ID NO: 22]	148%
Y[Aib]QGTFTSDYSKYLDEKRAKCFVQWLMNT (bridge 16-20; also: ring between positions 16 and 20, kind not given here) [glucagon derivative of SEQ ID NO: 25]	46.9%
Y[Aib]QGTFTSDYSKYLCEKRAKEFVQWLMNT (bridge 16-20; also: ring between positions 16 and 20, kind not given here) [glucagon derivative of SEQ ID NO: 19]	12.1%
Y[Aib]QGTFTSDYSKYLDECRAKEFVQWLMNT (bridge 16-20; also: ring between positions 16 and 20, kind not given here) [glucagon derivative of SEQ ID NO: 20]	300%
Y[Aib]QGTFTSDYSKYLDSCDADDFVVWLINT [glucagon derivative of SEQ ID NO: 10]	< 0.1%
Y[Aib]QGTFTSDYSKYLCEKRAQDFVVWLMNT [glucagon derivative of SEQ ID NO: 15]	1.1%
W[Aib]QGTFTSDYSKYLDECRAKDFVQWLMNT (bridge 16-20; also: ring between positions 16 and 20, kind not given here) [glucagon derivative of SEQ ID NO: 26]	1%
YXQGTFTSDYSKYLDSRRAQDFVQWLMNT (X at position 2 = aminoisobutyric acid (Aib)) [glucagon derivative of SEQ ID NO: 33]	108%
Y[Aib]QGTFTSDYSKYLDEKCAKEFVQWLMNT (not fully specified (bridges)) [glucagon derivative of SEQ ID NO: 11]	4.6%

From patent publication US20180186853A1 (HANMI PHARM, published 2018)
